In patent US20070184522A1, “Cell death modulation via antagonists of Fasl and Fas activation” (University of Pittsburgh of the Commonwealth System of …, priority 2004, published 2007):
“Also recorded” adds a separate entry of the source.

Tests used:
[1] = biological target: T1, Fas trimerization in Jurkat cells (Homo sapiens, UniProt P25445); experiment: Chemical crosslinking (DTSSP) and Western blot of Fas trimerization in Jurkat cells; format: cell-based; details: Fas Ligand 2 μg/ml, DTSSP
T1 construct: endogenous in cells; host or cells: Jurkat
T1 sequence (P25445 26-335): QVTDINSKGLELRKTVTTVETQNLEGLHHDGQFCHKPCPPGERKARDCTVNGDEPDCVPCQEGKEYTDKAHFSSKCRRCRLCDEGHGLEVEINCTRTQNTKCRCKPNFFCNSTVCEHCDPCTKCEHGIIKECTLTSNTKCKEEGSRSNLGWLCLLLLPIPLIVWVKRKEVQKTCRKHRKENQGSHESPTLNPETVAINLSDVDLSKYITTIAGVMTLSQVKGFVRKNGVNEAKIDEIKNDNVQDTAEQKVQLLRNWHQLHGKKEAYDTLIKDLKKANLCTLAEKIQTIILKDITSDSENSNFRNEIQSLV
Description: FIG. 3a presents data collected from Jurkat cells (1×10^6) treated with 2 μg/ml of Fas Ligand with or without AlphaMet for 30 minutes on ice. Cells were washed with PBS twice and then incubated with 2 mM of DTSSP in PBS for 30 minutes. The crosslinking process was stopped by 20 mM of Tris (pH 7.5) for another 30 minutes. Cells were spun down and washed with PBS twice and lyzed in RIPA buffer. Cell lysates were subjected to SDS-PAGE under non-reducing or reducing conditions (FIG. 3b) and Western blot analysis using the mouse monoclonal antibody against human Fas. FIG. 3c depicts the quantification of the data in FIG. 3a by densitometry. The data are the mean and SE from three different independent crosslinking and Western blot experiments. […] Frame A: Acceptor CFP-Fas image; Frame B: Acceptor pre-bleach CFP-Fas image; Frame C: Acceptor post-bleach image. Frame D: Donor YFP-Fas image; Frame E: Donor pre-bleach image; Frame F: […]. The CFP-Fas strength in the selected region obtained a gain of 19.3% efficiency in the presence of FasL for 15 minutes. No FRET was observed without FasL. […] FIG. 3e depicts the results of experiments in which CFP-tagged Fas or CFP control vector were transiently expressed in Hepa 1-6 Cells (3×10^5). […] Cells were fixed and analyzed by fluorescence microscopy. […]

[2] = tested on: Fas self-assembly in Hepa 1-6 cells; experiment: FRET assay of CFP-Fas/YFP-Fas in transfected Hepa 1-6 cells; format: cell-based; details: Hepa 1-6 cells, CFP-Fas and YFP-Fas, FasL with AlphaMet
Description: FIG. 3a presents data collected from Jurkat cells (1×10^6) treated with 2 μg/ml of Fas Ligand with or without AlphaMet for 30 minutes on ice. Cells were washed with PBS twice and then incubated with 2 mM of DTSSP in PBS for 30 minutes. The crosslinking process was stopped by 20 mM of Tris (pH 7.5) for another 30 minutes. Cells were spun down and washed with PBS twice and lyzed in RIPA buffer. Cell lysates were subjected to SDS-PAGE under non-reducing or reducing conditions (FIG. 3b) and Western blot analysis using the mouse monoclonal antibody against human Fas. FIG. 3c depicts the quantification of the data in FIG. 3a by densitometry. The data are the mean and SE from three different independent crosslinking and Western blot experiments. […] Frame A: Acceptor CFP-Fas image; Frame B: Acceptor pre-bleach CFP-Fas image; Frame C: Acceptor post-bleach image. Frame D: Donor YFP-Fas image; Frame E: Donor pre-bleach image; Frame F: Donor pre-bleach image. […] Cells were fixed and analyzed by fluorescence microscopy. […]
FRET assay. […] Fret efficiency (E) was calculated as FRETeff=(Dpost−Dpre)/Dpost (Dpost and Dpre are the mean emission intensity […] YFP bleaching).
Fluorescence protein tagged Fas molecules and Hepa 1-6 cells were used for these experiments. […] In these experiments the percent of Fas capping was also determined.

Jurkat cells = experiment: Fas-ligand induced apoptosis in Jurkat cells (Trypan Blue, flow cytometry); format: cell-based, human
Description: (§1) For FIG. 4a, Jurkat cells (1.5×10^5) were overnight treated in triplicate with 5 ng/ml of crosslinked human Fas ligand with or without 5 μg/ml of recombinant AlphaMet or 1 μg/ml of the indicated polypeptides. Percent apoptosis was determined by Trypan Blue staining using a hemocytometer. The data are representative and were repeated at least four times. […] The 17 kDa fragment of cleaved Caspase 3 is visualized by this antibody. The blot was reprobed for β-actin as a loading control. For FIG. 4c, serum deprived Hepa 1-6 cells (3×10^5) were overnight treated with 1 μg/ml of crosslinked mouse Fas ligand with or without AlphaMet or the indicated polypeptide. Media were collected and centrifuged to pellet the dead cells. […] The data in FIG. 4c represents three independent experiments.
Apoptosis assay. Pre-washed Jurkat cells in RPMI 1640 medium containing 1% FBS were inoculated in 96-wells at a density of 10^5 cells per well. Apoptosis was induced by cross-linked human Fas-ligand (R&D Systems) at a concentration of 0.5 ng/ml or Anti-Fas (human, activating) clone CH11 (Upstate biotechnology) at a concentration of 500 ng /ml. Hepa 1-6 cells were overnight starved before induction of apoptosis. The apoptosis in Hepa 1-6 was induced by anti-mouse Fas antibody Jo2 (200 ng/ml) or human recombinant Fas-ligand. The extent of cell viability and apoptosis was determined by several methods such as Trypan Blue stain, flow cytometry, LDH assay, and Hoechst staining.

[3] = tested on: Caspase 3 activation in Jurkat cells; experiment: Cleaved Caspase 3 Western blot in apoptotic Jurkat cells; format: cell-based, human; details: Fas-ligand
Description: as §1
To provide biochemical evidence that AlphaMet inhibited FasL-mediated apoptosis, the activation of Caspase 3, a down stream executioner in Fas mediated apoptosis, was analyzed in apoptotic Jurkat cells.

B1: alpha subunit of Met (AlphaMet), amino acid residues 1 to 306, His-tagged (receptor, mouse)
chain: MKAPTVLAPGILVLLLSLVQRSHGECKEALVKSEMNVNMKYQLPNFTAETPIQNVVLHGHHIYLGATNYIYVLNDKDLQKVSEFKTGPVLEHPDCLPCRDCSSKANSSGGVWKDNINMALLVDTYYDDQLISCGSVNRGTCQRHVLPPDNSADIQSEVHCMFSPEEESGQCPDCVVSALGAKVLLSEKDRFINFFVGNTINSSYPPGYSLHSISVRRLKETQDGFKFLTDQSYIDVLPEFLDSYPIKYIHAFESNHFIYFLTVQKETLDAQTFHTRIIRFCSVDSGLHSYMEMPLECILTEKRRKRHHHHHH
Fas trimerization [1]: reduced the Fas trimerization to the background level | FasL-induced FRET [2]: no significant FRET could be detected; also recorded: inhibited the FasL-induced FRET phenomenon | death rate (Jurkat cells; Fas-ligand overnight, AlphaMet 5 μg/ml, Trypan Blue): 12% | sub-G1 (apoptotic) population (Jurkat cells; Propidium Iodide flow cytometry, Fas-ligand): 8% | Caspase 3 activation (17 kDa cleaved form) [3]: markedly reduced
